Results on 3 molecules are retold here after article doi:10.1101/208272 (bioRxiv, 2017).

For orientation: stoichiometry N means a count of units in the complex or per binding partner. As a reminder, the Kd is the concentration at which binding is half-saturated. Read a high Kd as weaker binding.

Data set [1] has as its target Cdh23-EC1+2 (mouse cadherin-23 extracellular repeats EC1 and EC2), wild type (mouse) (UniProt Q99PF4). Put plainly: FRET or BRET. (Bioluminescence resonance energy transfer reports proximity on the nanometre scale.)
Data set [2] addresses Cdh23-EC1+2 V3C, labelled with cy3 or cy5 at the N-terminus (mouse). The data set is described as follows: FRET or BRET.
Data set [3] concerns the target Cdh23-EC1+2 (mouse cadherin-23 extracellular repeats EC1 and EC2), wild type (mouse) (UniProt Q99PF4). The data set is described as follows: dynamic light scattering.
The target is the same in data set [4]. Put plainly: AUC.
For data set [5] the target is unchanged. Put plainly: SEC. A general note: Size exclusion chromatography separates by hydrodynamic size, large species first.
Data set [6] shares this target. Put plainly: single-molecule force spectroscopy.
Data set [7] deals with the molecule itself. Put plainly: AUC.

For the molecule “Cdh23-EC1+2 V3C, labelled with cy3 or cy5 at the N-terminus (domain or fragment)”, the FRET efficiency was 0.64 in data set [1] and 0.15 in data set [2].

In turn, “Cdh23-EC1+2 (mouse cadherin-23 extracellular repeats EC1 and EC2), wild type (from UniProt Q99PF4 24-228) (domain or fragment)” returned a stoichiometry N in data set [3] of 2. In data set [4], this molecule displayed a Kd of 18 µM and a stoichiometry N of 2. The stoichiometry N in data set [5] was determined as 2. Also, in data set [6], the percent unbinding events is 8 to 10%; the probability of events amounted to 6%; the τ0 (intrinsic lifetime at zero force), high-force distribution worked out at 1220 s; the τ0 (intrinsic lifetime at zero force), low-force distribution came out at 1.86 s.

B1: Cdh23-EC1 (mouse cadherin-23 extracellular repeat EC1) (domain or fragment, UniProt Q99PF4 24-124, looked up)
chain: QVNRLPFFTNHFFDTYLLISEDTPVGSSVTQLLARDMDNDPLVFGVSGEEASRFFAVEPDTGVVWLRQPLDRETKSEFTVEFSVSDHQGVITRKVNIQVGD
modifications: C-terminus covalently joined by sortase A to GGGGC on PEG-coated coverslips and AFM cantilevers in force spectroscopy
In the case of B1, the “stoichiometry N” value in data set [7] worked out at 2.
